Assay results: patent US20060240516A1 (ECOLE NORMALE SUPERIEURE DE LYON, published 2006)

Legend:
[1] = biological target: T1, Rev protein of HIV-1 (HIV-1, UniProt P04618 1-116); test: gel retardation of the Rev-RRE RNA complex
T1 construct: also called pSG-Rev
T1 sequence: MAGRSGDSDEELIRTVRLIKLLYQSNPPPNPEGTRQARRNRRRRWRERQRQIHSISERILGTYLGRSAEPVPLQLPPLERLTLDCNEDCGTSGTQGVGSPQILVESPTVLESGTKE

[2] = biological target: T2, GST-Rev fusion protein produced in bacteria (HIV-1, UniProt P04618 1-116); test: GST-Rev on glutathione-agarose column, elution with glutathione, immunoblot against FLAG
T2 construct: also called GXT-Rev
T2 sequence: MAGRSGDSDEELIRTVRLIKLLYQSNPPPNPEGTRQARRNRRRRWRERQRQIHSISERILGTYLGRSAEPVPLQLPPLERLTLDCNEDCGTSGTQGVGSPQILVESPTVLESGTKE

[3] = biological target: T3, LexA alone (bait control) (UniProt P0A7C2 1-202); test: yeast two-hybrid, beta-galactosidase filter test; W = white after 6 h
T3 construct: also called pLex9
T3 sequence: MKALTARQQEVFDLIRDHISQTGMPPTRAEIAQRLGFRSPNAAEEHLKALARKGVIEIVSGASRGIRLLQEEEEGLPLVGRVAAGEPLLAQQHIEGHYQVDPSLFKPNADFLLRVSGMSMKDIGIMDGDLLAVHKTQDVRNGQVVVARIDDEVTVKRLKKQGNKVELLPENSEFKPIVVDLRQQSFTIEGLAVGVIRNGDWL

[4] = biological target: T3, LexA alone (bait control); test: two-hybrid test in HeLa cells, SEAP reporter

B1: SHPT-8 produced in bacteria (N-terminal FLAG epitope), purified (designed binder)
chain: MSDQEAKPSTEDLGDKKEGEYIKLKVIGQDSSEIHFKVKMTTHLKKLKESYCQRQGVPMNSLRFLFEGQRIADNHTPKELGMEEEDVIEVYQEQTARPPNPKKEIELGGGGSFTMRGVDPGRKKRRQRRRG
notes: also called pFLAG-SUMO-1-P 8
B1: no binding [1]; no binding [2].

B2: Yeast prey GAL4 activation domain-heptapeptide-Tat PTD, clone 9 (LexTat screening) (designed binder)
chain: GGGGSITRRIEMPGRDIPGVDGSILRGCWDPGRKKRRQRRRG
B2: no binding [3].

B3: Mammalian prey FLAG-NLS-Vp16 activation domain-heptapeptide-Tat PTD, pSG-FNV-P-T9 (designed binder)
chain: ITRRIEMPGRDIPGVDGSILRGCWDPGRKKRRQRRRG
B3: no binding [4].
